Molecular target: human plasma fibronectin (human)
Experiment: ELISA; whole-cell ELISA; 1 ug human plasma Fn coated on Maxisorp wells, blocked with 2% BSA; ca. 2.5 x 10^7 washed bacteria added for 2 h at 37°C; attached bacteria detected with anti-B. henselae IgG, absorbance at 450 nm; triplicate

human plasma fibronectin (human), sequence (P02751 32-2477): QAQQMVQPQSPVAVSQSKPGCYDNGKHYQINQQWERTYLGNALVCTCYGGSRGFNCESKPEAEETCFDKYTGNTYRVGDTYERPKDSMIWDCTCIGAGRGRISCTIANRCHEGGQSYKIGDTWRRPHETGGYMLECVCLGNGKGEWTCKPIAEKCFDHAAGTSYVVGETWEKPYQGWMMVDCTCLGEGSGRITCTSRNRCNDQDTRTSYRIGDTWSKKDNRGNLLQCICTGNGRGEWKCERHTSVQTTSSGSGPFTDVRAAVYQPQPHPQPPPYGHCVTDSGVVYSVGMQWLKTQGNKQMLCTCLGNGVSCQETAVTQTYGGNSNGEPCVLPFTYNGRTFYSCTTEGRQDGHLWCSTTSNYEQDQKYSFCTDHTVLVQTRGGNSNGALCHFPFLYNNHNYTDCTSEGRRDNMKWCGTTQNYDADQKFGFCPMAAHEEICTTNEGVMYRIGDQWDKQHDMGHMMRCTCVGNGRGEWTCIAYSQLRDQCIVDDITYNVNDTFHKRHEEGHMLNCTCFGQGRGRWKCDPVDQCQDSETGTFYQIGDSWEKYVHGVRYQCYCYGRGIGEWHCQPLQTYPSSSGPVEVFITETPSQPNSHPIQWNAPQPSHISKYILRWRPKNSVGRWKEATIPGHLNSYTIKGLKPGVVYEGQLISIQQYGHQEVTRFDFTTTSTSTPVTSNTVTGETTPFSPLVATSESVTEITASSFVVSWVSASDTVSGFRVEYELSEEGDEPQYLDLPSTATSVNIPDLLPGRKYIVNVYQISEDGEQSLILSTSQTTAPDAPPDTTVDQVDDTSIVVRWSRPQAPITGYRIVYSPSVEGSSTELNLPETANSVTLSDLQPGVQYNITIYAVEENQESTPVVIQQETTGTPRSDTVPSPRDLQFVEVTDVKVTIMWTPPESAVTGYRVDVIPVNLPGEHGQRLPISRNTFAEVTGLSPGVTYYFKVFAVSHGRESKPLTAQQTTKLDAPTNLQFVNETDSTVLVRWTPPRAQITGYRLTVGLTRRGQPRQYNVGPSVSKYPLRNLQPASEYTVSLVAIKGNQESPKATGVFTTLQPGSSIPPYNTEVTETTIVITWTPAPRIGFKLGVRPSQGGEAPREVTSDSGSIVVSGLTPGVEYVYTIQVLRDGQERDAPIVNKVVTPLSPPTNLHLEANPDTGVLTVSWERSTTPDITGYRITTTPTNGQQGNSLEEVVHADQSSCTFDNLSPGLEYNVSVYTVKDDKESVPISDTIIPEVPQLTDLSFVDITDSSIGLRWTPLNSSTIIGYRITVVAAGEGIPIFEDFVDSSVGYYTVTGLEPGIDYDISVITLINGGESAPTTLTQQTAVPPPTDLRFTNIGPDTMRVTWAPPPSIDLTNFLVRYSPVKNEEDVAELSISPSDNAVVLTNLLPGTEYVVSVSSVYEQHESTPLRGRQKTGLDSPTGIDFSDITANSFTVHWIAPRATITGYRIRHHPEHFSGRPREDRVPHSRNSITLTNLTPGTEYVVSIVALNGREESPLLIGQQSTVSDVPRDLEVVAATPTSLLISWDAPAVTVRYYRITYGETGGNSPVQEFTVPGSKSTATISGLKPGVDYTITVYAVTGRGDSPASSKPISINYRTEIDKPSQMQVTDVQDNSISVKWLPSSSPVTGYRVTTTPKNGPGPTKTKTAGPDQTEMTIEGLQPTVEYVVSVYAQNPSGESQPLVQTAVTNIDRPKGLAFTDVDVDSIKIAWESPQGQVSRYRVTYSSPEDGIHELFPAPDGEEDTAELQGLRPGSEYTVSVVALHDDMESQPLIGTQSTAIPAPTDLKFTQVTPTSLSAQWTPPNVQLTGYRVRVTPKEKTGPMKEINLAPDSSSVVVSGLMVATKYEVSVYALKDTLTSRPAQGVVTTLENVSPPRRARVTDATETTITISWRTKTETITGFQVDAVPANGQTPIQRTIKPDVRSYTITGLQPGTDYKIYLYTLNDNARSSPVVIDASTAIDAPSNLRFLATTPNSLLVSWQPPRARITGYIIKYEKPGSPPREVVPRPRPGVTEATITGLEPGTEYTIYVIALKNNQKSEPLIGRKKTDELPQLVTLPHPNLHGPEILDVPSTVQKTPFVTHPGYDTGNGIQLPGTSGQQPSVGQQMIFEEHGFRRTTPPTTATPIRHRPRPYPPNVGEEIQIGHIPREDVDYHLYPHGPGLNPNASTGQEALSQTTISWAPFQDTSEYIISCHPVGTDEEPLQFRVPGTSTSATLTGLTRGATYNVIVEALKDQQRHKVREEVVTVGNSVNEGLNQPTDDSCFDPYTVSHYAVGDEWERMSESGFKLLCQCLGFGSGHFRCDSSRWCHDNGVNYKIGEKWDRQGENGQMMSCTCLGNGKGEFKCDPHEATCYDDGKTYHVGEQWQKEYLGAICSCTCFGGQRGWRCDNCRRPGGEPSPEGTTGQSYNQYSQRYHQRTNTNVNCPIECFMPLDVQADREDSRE

Bartonella adhesin A (BadA) of B. henselae Marseille, wild type (from UniProt Q5MWV9 48-3082) (natural protein)
absorbance at 450 nm, whole-cell ELISA: 0.908

From PMC9602544
